Results published in patent publication US20250236650A1.

These substances were tested against murine CTLA-4 fused to CD3ζ, expressed on the murine T-cell hybridoma 58α-β-CTLA-4/CD3ζ (murine) (UniProt P09793) (assay: flow cytometry on 58α-β-CTLA-4/CD3ζ cells, R-PE donkey anti-mouse IgG secondary antibody, MFI).

mouse anti-mouse CTLA-4 antibody 9D9, mouse IgG2b isotype (original isotype, derived from the hybridoma), sequence (light): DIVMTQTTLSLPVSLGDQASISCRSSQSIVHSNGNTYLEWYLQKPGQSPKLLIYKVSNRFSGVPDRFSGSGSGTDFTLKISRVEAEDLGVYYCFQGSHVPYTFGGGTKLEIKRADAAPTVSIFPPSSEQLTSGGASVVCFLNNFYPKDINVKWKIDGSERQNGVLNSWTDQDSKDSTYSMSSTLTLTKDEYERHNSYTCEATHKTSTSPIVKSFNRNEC
mouse anti-mouse CTLA-4 antibody 9D9, mouse IgG2b isotype (original isotype, derived from the hybridoma), sequence (heavy): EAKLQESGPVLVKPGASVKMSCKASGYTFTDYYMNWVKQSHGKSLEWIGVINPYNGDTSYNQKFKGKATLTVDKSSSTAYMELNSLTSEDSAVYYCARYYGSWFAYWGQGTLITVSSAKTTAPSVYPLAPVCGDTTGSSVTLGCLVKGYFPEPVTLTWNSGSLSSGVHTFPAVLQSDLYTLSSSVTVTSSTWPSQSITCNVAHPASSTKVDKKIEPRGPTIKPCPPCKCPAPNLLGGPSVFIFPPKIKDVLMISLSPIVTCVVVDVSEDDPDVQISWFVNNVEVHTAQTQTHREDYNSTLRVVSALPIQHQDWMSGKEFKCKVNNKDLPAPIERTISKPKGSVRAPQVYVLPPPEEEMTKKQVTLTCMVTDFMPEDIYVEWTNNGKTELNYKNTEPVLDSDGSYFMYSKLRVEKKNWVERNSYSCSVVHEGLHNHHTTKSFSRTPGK
mouse anti-mouse CTLA-4 antibody 9D9, mouse IgG1 isotype, sequence (light): as the sequence (light) above
mouse anti-mouse CTLA-4 antibody 9D9, mouse IgG1 isotype, sequence (heavy): as the sequence (heavy) above
mouse anti-mouse CTLA-4 antibody 9D9, mouse IgG2a isotype, sequence (light): as the sequence (light) above
mouse anti-mouse CTLA-4 antibody 9D9, mouse IgG2a isotype, sequence (heavy): as the sequence (heavy) above

Row | Substance | EC50 (read off the curve) [µg/mL]
1 | mouse anti-mouse CTLA-4 antibody 9D9, mouse IgG1 isotype | 0.6
2 | mouse anti-mouse CTLA-4 antibody 9D9, mouse IgG1 isotype containing a D265A mutation (from UniProt P01868 1-324) | 0.2
3 | mouse anti-mouse CTLA-4 antibody 9D9, mouse IgG2a isotype | 0.7
4 | mouse anti-mouse CTLA-4 antibody 9D9, mouse IgG2b isotype (original isotype, derived from the hybridoma) | 0.4
